{"source": "paper PMC9555795", "about": "“Divergent kinase WNG1 is regulated by phosphorylation of an atypical activation sub-domain” (Biochemical Journal, 2022)", "proteins": {"B1": {"name": "BPK1 (residues 61-377) (domain or fragment)", "chain": "SVYRIPLADMTFWSWMSYLKELPDIDESRNPILKRLLSGSFLRRDGSTTVNVRVPARELVRLLSLTPEQQREGVSAKVRLINLLDPKYSVYEPYLYREILPKRSPLLLPSLGEYRGAFLTYIFHPLSKGLVGDMLETGRSHPDVQVLAANMVAALKSLHNLGLLHRSIELNSFSVLPDGTVVLGGLDTAAPIGTETRLWVGFFGQETAPEIDRNFLADLALTQGRHTVKSDVYSLGVAFRNLVQLLGNGNIGPEDRGAVRQDHLELLDKLSQKMIEEEPGNRPTIEEIMKDPLFEGLNFEDIEEGKARPFRYKQNRL", "notes": "BPK1, pseudokinase of the WNG family, Toxoplasma gondii, residues 61-377; Cloned in pET28a with the SUMO tag; Purified on Ni-NTA as for WNG1, so a His tag probably went off with the SUMO tag; The species is stated for the WNG family in general, not for BPK1 by name; also called WNG family pseudokinase; source: Rosetta 2 (DE3) cells, purified (Ni-NTA, ULP1 digestion, anion exchange, SEC)"}}, "biological_target": "the molecule itself", "experiment": "SAXS; protein diluted from a 305 uM stock in 20 mM HEPES pH 7.5, 100 mM NaCl; DAMMIN envelope, SASREF P2 tetramer model compared with the crystal hexamer", "data": [{"protein": "B1", "values": [{"measurement": "stoichiometry N", "value": 4}]}]}
